Experimental data published in IntAct's records for PubMed 19691494.

B1: G-protein coupled receptor 15 (Pan troglodytes (Chimpanzee)), Q9BG77 (parent)
chain: MDPEETSVYLDYYYATSPNSDIRETHSHVPYTSVFLPVFYTAVFLTGVLGNLVLMGALHFKPGSRRLIDIFIINLAASDFIFLVTLPLWVDKEASLGLWRTGSFLCKGSSYMISVNMHCSVLLLTCMSVDRYLAIVWPVVSRKFRRTDCAYVVCASIWFISCLLGLPTLLSRELTLIDDKPYCAEKKATPIKLIWSLVALIFTFFVPLLSIVTCYCCIARKLCAHYQQSGKHNKKLKKSIKIIFIVVAAFLVSWLPFNTFKFLAIVSGLRQEHYLPSAILQLGMEVSGPLAFANSCVNPFIYYIFDSYIRRAIVHCLCPCLKNYDFGSSTETSDSHLTKALSTFIHAEDFARRRKRSVSL

Variants of: B1
Conditions: with 1433b_human YWHAB

effect of a mutation on the interaction | Variant
disrupting interaction | S359A
